Target: WDR5Δ23 (WD repeat domain 5, residues 24–334) (human) (UniProt P61964)
Test: fluorescence polarisation

Row | Substance | IC50 [µM] | Ki [µM]
1 | Ac-2mer (Ac-3mer without Ala3) (peptide) | 125 | 27
2 | Ac-3mer (Ac-ARA-NH2) (peptide) | 0.54 | 0.12
3 | Ac-H3-3mer (Ac-ART-NH2) (peptide) | 0.08 | 0.02
4 | H2N-3mer (H2N-ARA-NH2) (peptide) | > 300 | > 50
5 | Δ2b (Ac-ARA-CONMe2) (peptide) | 30 | 6.5
6 | Δ2c (Ac-ARA-COOCH3) (peptide) | 7.3 | 1.6

Continued, values first:

Row | IC50 [µM] | Ki [µM] | Substance
7 | 14.9 | 3.2 | CHO-3mer (CHO-ARA-NH2) (peptide)
8 | 127 | 27.3 | H3-3mer (H2N-ART-NH2) (peptide)
9 | > 300 | > 50 | Δ1 (Ac-AR-(N-Me)A-NH2) (peptide)
10 | 0.7 | 0.15 | Δ2a (Ac-ARA-CONHMe) (peptide)

From article PMC4289617
